Biological target: T1, LRP cl-IV (Homo sapiens, UniProt Q07954)
T1 construct: Cluster IV of the low-density lipoprotein (LDL) receptor-related protein (LRP cl-IV) was cloned from complete cDNA of THP1 cells; made in house; host or cells: HEK293E/S cells; culture supernatant used without purification
Assay: ELISA, binding of LRP cluster IV to misfolded proteins
Conditions: 5 μg/ml coated protein
Experimental: Binding of LRP cl-IV to misfolded protein was determined using an enzyme linked immuno sorbent assay (ELISA) set-up. For this purpose 50 μl of a 5 μg/ml solution of BSA, BSA-AGE, Hb or Hb-AGE or coat buffer (for negative control) was coated for 1 h with motion. Proteins were diluted in coat buffer (100 mM NaHCO3 pH 9.6). The BSA and Hb controls were prepared freshly by dissolving proteins at 1 mg/ml in PBS by rolling for 10 minutes on a roller bank at room temperature, 10 minutes incubation at 37° C. followed by again 10 minutes incubation at the roller bank. Coat controls were performed with anti-glycated protein antibody 4B5, anti-albumin antibody or anti Hb antibody. After coating the plates were washed twice with PBS/0.1% Tween-20 (v/v) and blocked with 300 μl/well blocking reagent (Roche Diagnostics, Almere, The Netherlands) for 1 h at room temperature with motion. […] After five washes with wash buffer binding of antibody was assessed with a secondary antibody. […] After 5 washes with wash buffer, binding of anti-FLAG antibody and secondary antibodies was assessed with 100 μl/well TMB substrate (ready to use from Tebu Bio). […] After ˜2 minutes absorbance was read at 450 nm.

T1 sequence (Q07954 3332-3778 limits assumed): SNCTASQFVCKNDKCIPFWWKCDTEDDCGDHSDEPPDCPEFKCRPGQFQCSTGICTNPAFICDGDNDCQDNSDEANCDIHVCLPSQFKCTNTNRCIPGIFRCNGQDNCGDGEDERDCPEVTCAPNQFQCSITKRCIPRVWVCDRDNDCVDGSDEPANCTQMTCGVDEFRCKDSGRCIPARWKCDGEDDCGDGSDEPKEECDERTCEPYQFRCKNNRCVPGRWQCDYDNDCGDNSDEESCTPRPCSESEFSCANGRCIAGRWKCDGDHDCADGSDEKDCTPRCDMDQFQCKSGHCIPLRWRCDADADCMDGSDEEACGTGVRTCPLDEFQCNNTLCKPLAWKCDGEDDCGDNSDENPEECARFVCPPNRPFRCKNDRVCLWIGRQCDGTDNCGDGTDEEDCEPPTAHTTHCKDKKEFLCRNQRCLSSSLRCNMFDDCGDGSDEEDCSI

“albumin-AGE: advanced glycation end-product modified bovine serum albumin” was tested, and the “binding of LRP cl-IV” value was “binds specifically”.
